The series deals with ErbB2 (UniProt P04626).

With Src, the “Src activity (Src kinase assay, Src-Y416 phosphorylation) after trastuzumab treatment” value is reported as “trastuzumab inhibited Src activity in ErbB2 overexpressing cells”.

The values above are taken from US20190360057.
